* marks the point of attachment. X1 = 1,2‑dioleoyl‑sn‑glycero‑3‑succinate, CCCCCCCC/C=C\CCCCCCCC(=O)OC[C@H](COC(=O)CCC(=O)*)OC(=O)CCCCCCC/C=C\CCCCCCCC

Assay [1] deals with endothelin receptors on A549 human lung epithelial carcinoma cells (human). The experiment in a line: cell-based or functional assay.
For assay [2], the target named is endothelin receptors on rat peritoneal mast cells (RBL) (rat). Kind of assay: cell-based or functional assay.

B1: liposome complex comprising the conjugated endothelin peptide ligand 1,2-dioleoyl-sn-glycero-3-succinate-Cys-His-Leu-Asp-Ile-Ile-Trp-COOH (peptide)
peptide: X1-CHLDIIW-OH
modifications: not fully specified; printed as 1,2-dioleoyl-sn-glycero-3-succinate-Cys-His-Leu-Asp-Ile-Ile-Trp-COOH; also: lipid conjugate incorporated in liposomes
In assay [1], B1 registered a recovery of endothelin receptors after internalization of 100% and a reduction of endothelin receptors after pre-exposure to unlabeled liposomes of 50%. In assay [2], this molecule had a reduction of endothelin receptors after pre-exposure to unlabeled liposomes of 50%.
